Laboratory results as given in US6403561.

Test system: non-sulphated CCK-8 (Asp-Tyr-Met-Gly-Trp-Met-Asp-Phe-NH2)

Sequence of membrane-bound tripeptidylpeptidase II purified from rat brain (cerebral cortex) membranes (chain, as listed by the source): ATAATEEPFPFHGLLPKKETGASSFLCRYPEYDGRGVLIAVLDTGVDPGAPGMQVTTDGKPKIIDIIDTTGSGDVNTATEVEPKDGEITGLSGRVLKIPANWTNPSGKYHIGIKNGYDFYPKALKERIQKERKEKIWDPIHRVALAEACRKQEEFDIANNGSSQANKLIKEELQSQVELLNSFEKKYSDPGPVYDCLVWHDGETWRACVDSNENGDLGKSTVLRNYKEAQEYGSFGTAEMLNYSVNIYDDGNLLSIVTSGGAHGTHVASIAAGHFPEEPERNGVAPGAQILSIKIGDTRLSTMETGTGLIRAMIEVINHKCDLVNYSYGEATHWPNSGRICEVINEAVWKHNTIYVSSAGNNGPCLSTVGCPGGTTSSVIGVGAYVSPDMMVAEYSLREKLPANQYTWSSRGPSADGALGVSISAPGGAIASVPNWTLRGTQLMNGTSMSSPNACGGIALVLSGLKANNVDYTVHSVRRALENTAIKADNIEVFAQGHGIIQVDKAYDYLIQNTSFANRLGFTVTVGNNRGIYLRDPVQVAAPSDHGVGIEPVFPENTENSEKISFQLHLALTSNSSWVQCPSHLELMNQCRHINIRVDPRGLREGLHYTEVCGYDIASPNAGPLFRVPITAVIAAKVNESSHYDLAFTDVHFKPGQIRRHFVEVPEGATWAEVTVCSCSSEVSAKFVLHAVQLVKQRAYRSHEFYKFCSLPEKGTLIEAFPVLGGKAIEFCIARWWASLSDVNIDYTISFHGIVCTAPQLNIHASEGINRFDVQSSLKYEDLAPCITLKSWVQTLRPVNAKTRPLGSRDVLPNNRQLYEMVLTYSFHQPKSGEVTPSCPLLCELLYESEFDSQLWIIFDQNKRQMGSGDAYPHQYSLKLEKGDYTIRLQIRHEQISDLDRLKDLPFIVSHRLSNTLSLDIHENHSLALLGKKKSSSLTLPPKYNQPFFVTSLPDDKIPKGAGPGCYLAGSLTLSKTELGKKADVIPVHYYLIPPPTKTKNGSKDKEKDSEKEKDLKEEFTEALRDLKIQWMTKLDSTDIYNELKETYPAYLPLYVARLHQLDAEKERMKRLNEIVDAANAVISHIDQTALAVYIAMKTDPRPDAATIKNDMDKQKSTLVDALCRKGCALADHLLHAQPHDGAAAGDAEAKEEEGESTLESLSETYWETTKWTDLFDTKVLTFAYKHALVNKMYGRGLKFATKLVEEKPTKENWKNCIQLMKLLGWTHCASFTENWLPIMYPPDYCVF

## membrane-bound tripeptidylpeptidase II purified from rat brain (cerebral cortex) membranes
  hydrolysis of CCK-8 (products CCK-5 and Gly-Trp-Met measured fluorimetrically after HPLC): only one enzyme is responsible for the two cleavages of the molecule CCK-8
